In publication PMC4385751 one finds Kd data, which are given here for one substance.

Usually Kd stands for the equilibrium constant for the complex coming apart.

Test [1] addresses Commercial CD62L from R&D systems, Inc. (human) (UniProt P14151). As to the kind of experiment: SPR.
The target in test [2] is Recombinant soluble human CD62L N104E mutant (residues 1-194, C-terminal six-histidine tag) (human) (UniProt P14151). As to the kind of experiment: SPR. For orientation: Surface plasmon resonance follows binding to a sensor surface in real time, without labels.

As for “type III porcine submaxillary mucin (PSM-III) (natural protein)”, the dissociation constant Kd in test [1] was found to be 27 µM; in test [2], 44 µM.
